# Assays:
# [1] = test system: RhoA; test: RhoA activity, rhotekin pull-down, U87MG cells; assay type: cell-based, human; conditions: SEMA3F 640 ng/ml, 10 minutes
# Experimental: FIG. 30A depicts U87MG cells treated with SEMA3F (640 ng/ml), rapamycin (10 nM) or Torin 1 (10 nM) for 30 minutes. Subsequently, cells were stained with Alexa Fluor 488 phalloidin and Hoechst 33342 to identify F-actin cytoskeleton stress fibers and cellular nuclei, respectively. […] The scale bar indicates 20 μm. FIG. 30B depicts U87MG cells transiently transfected with a pcDNA3.1 empty vector or with a wild type (WT) mTOR plasmid and after 18 hours treated with SEMA3F (640 ng/ml) for 30 minutes. Cells were stained as described above in FIG. 30A. Representative cellular staining is shown; bar graph represents the number of fibers/cell (mean±SD) from 3 independent experiments. FIG. 30C depicts U87MG cells transfected with control siRNA or with raptor- or rictor-specific siRNAs (20 nM). […] The number of stress fibers was evaluated in 3 independent experiments and shown as the mean±SD. […] After 18 hours, the cells were treated with SEMA3F (640 ng/ml) for 10 minutes and RhoA activity was evaluated. FIG. 30E depicts U87MG cells transfected with control siRNA or with raptor- or rictor-specific siRNAs (20 nM), were treated with SEMA3F (640 ng/ml) for 10 minutes and RhoA activity was analyzed. […]
# RhoA activity (39) was measured using the rhotekin pulldown assay in U87MG cells transfected with the mTOR overexpression construct (FIG. 30D). […]
# [2] = test system: VEGF promoter; test: VEGF promoter luciferase assay in U87MG cells; assay type: cell-based, human
# Experimental: FIGS. 31A-31B depict U87MG cells transiently co-transfected with a full-length human VEGF promoter luciferase plasmid and a pGL4.74 [hRluc/TK] plasmid as an internal control. Cells were treated with SEMA3F (640 ng/ml for 30 minutes) prior to the addition of DFO (250 μM) or the culture of cells in a hypoxia chamber (1% 02). After 18 hours, VEGF promoter luciferase activity was analyzed. FIG. 31C depicts a graph of U87MG cells transiently cotransfected with our VEGF promoter luciferase and pGL4.74 [hRluc/TK] plasmids and with either a pcDNA3.1 empty vector or our constitutively active Akt (2DAkt). The cells were treated with SEMA3F for 30 minutes prior to the addition of DFO. After 18 hours, VEGF promoter luciferase activity was analyzed. FIG. 31D depicts a graph of parental U87MG cells treated with SEMA3F, rapamycin (10 nM), Torin 1 (10 nM) alone or in combination as indicated for 30 minutes prior to the addition of DFO, and culture supernatants were collected after 18 hours; VEGF protein levels were analyzed by ELISA. In each panel data are representative of 3 independent experiments. Bar graphs represent the mean±SD of n=3 experiments performed in triplicate, *, p<0.01 vs. control.
# SEMA3F inhibits hypoxia-induced production of VEGF via the mTOR pathway. The local expression and regulation of VEGF is key to many physiological and pathological processes (40, 41). These findings indicate that SEMA3F can target the transcriptional activation of VEGF via its ability to target mTOR kinase activity (36, 42). To test the effect of SEMA3F on the regulation of VEGF expression, U87MG cells were transfected with a full-length 2.6 kb VEGF promoter-luciferase construct and exposed to the hypoxia mimetic agent desferrioxamine (DFO) or hypoxia (1% 02). […] To test the relative effect of SEMA3F on mTORC1/C2, U87MG cells transiently co-transfected with the 2DAkt construct and the full length VEGF promoter reporter construct, and the cells cultured in the absence or presence of SEMA3F. […] Finally, the effect of SEMA3F on the secretion of VEGF into conditioned media (by ELISA) was determined in the absence or presence of DFO.
# Transfection and Luciferase assay: U87MG cells were transiently transfected with plasmid constructs (pcDNA3.1, WT mTOR, 2DAkt, VEGF luciferase reporter plasmid or pGL4.74 [hRluc/TK]) as indicated using Lipofectamine 2000 reagent (Life Technologies) according to the manufacturer's instructions. After 18 hours, cells were treated as outlined in each experimental design. VEGF promoter activity was analyzed using a Dual-Luciferase Reporter Assay System (Promega), and luciferase activity was normalized by Renilla luciferase as an internal control.
molecule,measurement,setting,value
"SEMA3F: Human recombinant full-length His-Myc-tagged SEMA3F, secreted by transfected 293T cells and purified; class 3 semaphorin, NRP-2 ligand (protein, listed as Homo sapiens, His-Myc tag, Human recombinant full-length His-Myc-tagged SEMA3F, secreted by transfected 293T cells and purified; class 3 semaphorin, NRP-2 ligand) MLVAGLLLWASLLTGAWPSFPTQDHLPATPRVRLSFKELKATGTAHFFNFLLNTTDYRILLKDEDHDRMYVGSKDYVLSLDLHDINREPLIIHWAASPQRIEECVLSGKDVNGECGNFVRLIQPWNRTHLYVCGTGAYNPMCTYVNRGRRAQATPWTQTQAVRGRGSRATDGALRPMPTAPRQDYIFYLEPERLESGKGKCPYDPKLDTASALINEELYAGVYIDFMGTDAAIFRTLGKQTAMRTDQYNSRWLNDPSFIHAELIPDSAERNDDKLYFFFRERSAEAPQSPAVYARIGRICLNDDGGHCCLVNKWSTFLKARLVCSVPGEDGIETHFDELQDVFVQQTQDVRNPVIYAVFTSSGSVFRGSAVCVYSMADIRMVFNGPFAHKEGPNYQWMPFSGKMPYPRPGTCPGGTFTPSMKSTKDYPDEVINFMRSHPLMYQAVYPLQRRPLVVRTGAPYRLTTIAVDQVDAADGRYEVLFLGTDRGTVQKVIVLPKDDQELEELMLEEVEVFKDPAPVKTMTISSKRQQLYVASAVGVTHLSLHRCQAYGAACADCCLARDPYCAWDGQACSRYTASSKRRSRRQDVRHGNPIRQCRGFNSNANKNAVESVQYGVAGSAAFLECQPRSPQATVKWLFQRDPGDRRREIRAEDRFLRTEQGLLLRALQLSDRGLYSCTATENNFKHVVTRVQLHVLGRDAVHAALFPPLSMSAPPPPGAGPPTPPYQELAQLLAQPEVGLIHQYCQGYWRHVPPSPREAPGAPRSPEPQDQKKPRNRRHHPPDT",RhoA activity partially rescued (by),[1]; U87MG cells overexpressing mTOR,55%
same,suppression of RhoA activity,[1]; control pcDNA3.1-transfected U87MG cells,88%
same,inhibition of DFO-induced VEGF promoter activity,"[2]; SEMA3F 640 ng/ml pre-treatment 30 minutes, DFO 250 μM, 18 hours",43%
same,reduction of hypoxia-induced VEGF promoter activity,"[2]; SEMA3F 640 ng/ml, 18 hours culture in 1% O2",44%
same,VEGF promoter activity in 2DAkt transfected cells,[2]; SEMA3F 30 minutes prior to DFO,failed to attenuate VEGF promoter activity
